The values that follow come from patent publication CN117088968A (DONGGUAN PENGZHI BIOTECHNOLOGY CO LTD, dated 2023).

For experiment [1], the target named is T1, 2019-nCoV N蛋白抗原 (2019-nCoV (新型冠状病毒), UniProt P0DTC9 1-419).
T1 construct: also called 新型冠状病毒N蛋白; 核衣壳蛋白(N蛋白)
Nature of the experiment: AMC sensor, antibody captured at 10 μg/mL, N protein antigen in serial dilution in PBST.

Experiment [2] has as its target T1, 2019-nCoV N蛋白抗原.

Where only a bound is given, the exact number is not on record here.

B1: 抗新型冠状病毒的IgG抗体9B54 (antibody)
heavy: EVLLQQSGPELVNPGASVKIPCKASGYTFTDYNMGWVKQSHGKSLEWIGAIIPNNGGTIYNQKFKGKATLTVDESSSTAYMELRSLTSEDTAVYYCAREAYRDYDVKTWFAYWGQGTLVTVSAAKTTPPSVYPLAPGSAAQTNSMVTLGCLVKGYFPEPVTVTWNSGSLSSGVHTFPAVLQSDLYTLSSSVTVPSSTWPSETVTCNVAHPASSTKVDKKIVPRDCGCKPCICTVPEVSSVFIFPPKPKDVLTITLTPKVTCVVVDISKDDPEVQFSWFVDDVEVHTAQTQPREEQFNSTFRSVSELPIMHQDWLNGKEFKCRVNSAAFPAPIEKTISKTKGRPKAPQVYTIPPPKEQMAKDKVSLTCMITDFFPEDITVEWQWNGQPAENYKNTQPIMDTDGSYFVYSKLNVQKSNWEAGNTFTCSVLHEGLHNHHTEKSLSHSPGK
light: DLQMTQTTSSLSASLGDRVTISCSASQGIRNYLNWYQQKPDGTVKLLIYYTSTLHSGVPSRFSGSGSGTDYSLTISNLEPEDIATYFCQQYSKFPYTFGGGTKLEIKRADAAPTVSIFPPSSEQLTSGGASVVCFLNNFYPKDINVKWKIDGSERQNGVLNSWTDQDSKDSTYSMSSTLTLTKDEYERHNSYTCEATHKTSTSPIVKSFNRNEC
Turning to B1, in the experiment with 2019-nCoV N蛋白抗原 [1], the equilibrium dissociation constant (Kd) was 0.102 nM, the koff was determined as 0.000113 s⁻¹ and the on-rate (kon) was 1.11e+06 M⁻¹ s⁻¹. The “OD450 (ref. 630 nm) of cell supernatant diluted 1000-fold” value with 2019-nCoV N蛋白抗原 [2] is more than 1.

B2: 抗新型冠状病毒的类IgM抗体8C21 (antibody)
heavy: EVLLQQSGPELVNPGASVKIPCKASGYTFTDYNMGWVKQSHGKSLEWIGAIIPNNGGTIYNQKFKGKATLTVDESSSTAYMELRSLTSEDTAVYYCAREAYRDYDVKTWFAYWGQGTLVTVSAAKTTPPSVYPLAPGSAAQTNSMVTLGCLVKGYFPEPVTVTWNSGSLSSGVHTFPAVLQSDLYTLSSSVTVPSSTWPSETVTCNVAHPASSTKVDKKIVPRDCPAVAEMNPNVNVFVPPRDGFSGPAPRKSKLICEATNFTPKPITVSWLKDGKLVESGFTTDPVTIENKGSTPQTYKVISTLTISEIDWLNLNVYTCRVDHRGLTFLKNVSSTCAASPSTDILTFTIPPSFADIFLSKSANLTCLVSNLATYETLNISWASQSGEPLETKIKIMESHPNGTFSAKGVASVCVEDWNNRKEFVCTVTHRDLPSPQKKFISKPNEVHKHPPAVYLLPPAREQLNLRESATVTCLVKGFSPADISVQWLQRGQLLPQEKYVTSAPMPEPGAPGFYFTHSILTVTEEEWNSGETYTCVVGHEALPHLVTERTVDKSTGKPTLYNVSLIMSDTGGTCY
light: B1 light
notes: IgM-like antibody made by replacing part of the constant region of 9B54 with that of IgM
Turning to B2, in the experiment with 2019-nCoV N蛋白抗原 [1], binding was put at a Kd of 0.031 nM, the koff turned out to be 6.56e-05 s⁻¹ and the kon is 2.11e+06 M⁻¹ s⁻¹.

As usually defined, the Kd is the constant that tells how readily two partners part at equilibrium. Lower therefore signals tighter binding. As usually defined, the koff is a measure of how fast the partners let go of each other. The low end stands for slow dissociation, the high end for fast dissociation. As a reminder, the kon is the rate constant with which the complex forms. Read a high kon as fast association.
